Test results published in publication PMC4303335.

Legend:
[1] = target: H3–K27 substrate peptide of the sensor (no NLS); assay: split reporter
[2] = target: H3–K9 substrate peptide of the sensor with C-terminal NLS (NhRluc8.6-Suv39H1–H3–K9-ChRLuc-NLS); assay: split reporter

Substance | reconstituted RLuc signal (RLU/μg protein) [1] | reconstituted RLuc signal [2] | reconstituted RLuc signal (RLU/μg protein) [2]
Pc2 chromodomain in the H3–K27 sensor (domain or fragment) | 3.67e+07 |  | 
Suv39H1 chromodomain in the H3–K9 sensor (NhRluc8.6-Suv39H1–H3–K9-ChRLuc) (domain or fragment) |  | 3.3e+06 | 5.26e+06
Suv39H1 chromodomain mutant (W64A, W74A) in the H3–K9 sensor (domain or fragment) |  | 1.75e+06 | 
